# Paper PMC10504324, “A microprotein N1DARP encoded by LINC00261 promotes Notch1 intracellular domain (N1ICD) degradation via disrupting USP10-N1ICD interaction to inhibit chemoresistance in Notch1-hyperactivated pancreatic cancer” (Cell Discovery, 2023)
# “And” between values parts separate entries of the source, which are not always exact repeats. Identical values can stand only once. Bridge positions count the residues as written; N and C are the ends. Square brackets hold non-standard residues; d marks the D form. Ends that are not written are not given here. S5 = C=CCCC[C@](C)(N)C(=O)O
# T1: ANK domain of Notch4 intracellular domain (N4ICD-ANK) (UniProt Q99466 1633-1798)
# T1 construct: Notch4, ANK domain of the intracellular domain; position 1633-1798, length 166 aa printed
# T1 sequence (looked up): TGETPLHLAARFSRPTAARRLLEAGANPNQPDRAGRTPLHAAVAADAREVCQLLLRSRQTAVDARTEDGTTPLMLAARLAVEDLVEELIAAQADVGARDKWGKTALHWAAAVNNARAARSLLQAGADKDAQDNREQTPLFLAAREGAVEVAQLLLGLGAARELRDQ
# T2: ANK domain of Notch3 intracellular domain (N3ICD-ANK) (UniProt Q9UM47 1838-2000)
# T2 construct: Notch3, ANK domain of the intracellular domain; position 1838-2000, length 163 aa printed
# T2 sequence (looked up): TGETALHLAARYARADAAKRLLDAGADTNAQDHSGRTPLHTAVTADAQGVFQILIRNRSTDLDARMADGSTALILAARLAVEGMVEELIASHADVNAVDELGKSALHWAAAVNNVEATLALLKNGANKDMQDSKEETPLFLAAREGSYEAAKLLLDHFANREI
# T3: ANK domain of Notch2 intracellular domain (N2ICD-ANK) (UniProt Q04721 1827-2038)
# T3 construct: Notch2, ANK domain of the intracellular domain; position 1827-2038, length 212 aa printed
# T3 sequence (looked up): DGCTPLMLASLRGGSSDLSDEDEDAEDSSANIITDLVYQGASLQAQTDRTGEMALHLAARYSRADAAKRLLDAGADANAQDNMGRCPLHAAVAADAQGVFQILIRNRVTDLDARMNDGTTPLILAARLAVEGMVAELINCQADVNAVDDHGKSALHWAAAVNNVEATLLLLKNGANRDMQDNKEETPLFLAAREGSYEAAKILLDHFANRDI
# Assays:
# [1] = target: AH2, alpha-helical peptide 2 of N1DARP (human); test: SPR; BIAcore T200 (GE Healthcare); dissociation constant calculated with BIA-evaluation software; which partner was immobilised is not stated
# [2] = target: N1ICD (wild type; source not stated) (UniProt P46531); test: co-IP followed by western blotting (band intensity); details: HEK293T, IgG control 0.00
# [3] = test system: metastatic pancreatic cancers; details: cited from earlier work; for remission in clinical studies: γ-secretase inhibitors, metastatic pancreatic cancers
# Source text: The Notch pathway is active in a broad spectrum of human cancers, including breast, colorectal, lung, prostate, glioblastoma, and pancreatic cancer. Notch signaling is positively associated with pancreatic tumor initiation, progression, and drug resistance in both cell lines and genetic mutant mouse models[7],[8]. In preclinical models, pharmacological inhibition of Notch signaling by small molecules designed to affect HES1 transcriptional function (JI051 and JI130)[9] and natural agents targeting the Notch pathway, such as curcumin, genistein, quercetin, and sulforaphane, slowed tumor prol ...
# Capan1 = test: IC50 assay, chemosensitivity to GEM; format: cell-based; details: Homo sapiens, CAPAN-1; Capan1, Vector; Fig. 5j
# ANK domain of N1ICD = ANK domain of N1ICD (Homo sapiens, UniProt P46531); test: SPR analysis, affinity for ANK domain; format: binding; details: mAH2 compared with AH2, Fig. S8E
# Method: The binding kinetics between N1DARP or SAH-mAH2-5 and the indicated peptides were analyzed using a SPR assay with a BIAcore T200 instrument (GE Healthcare, Pittsburgh, PA, USA). The dissociation constant was calculated using BIA-evaluation software.
# 309 was determined using reversed phase HPLC with electrospray ionization mass spectrometric detection.
# 311 Supplementary Note S1. Generation and modification of N1DARP-derived stapled peptide SAH-
# 313 To evaluate the therapeutic potential of disrupting the N1ICD-USP10 interaction with N1DARP and
# 314 define a more druggable target, we simulated the tertiary structure of N1DARP using I-TASSAR, a
# 315 hierarchical server for protein structure prediction4, and identified two α-helical peptides (AH1 and
# 316 AH2) (Fig. S8A, left panel).
# 318 we constructed and purified six subdomains with α-helix secondary structure of ANK, designated from
# 320 S8B-S8D). To optimize the physicochemical properties of AH2, we first checked the amino acid
# 322 cancer cells to AH2; therefore, we tried amino acid substitution of Glu32 by Gln32. SPR analysis
# 324 mAH2 (Fig. S8E). Next, to identify the indispensable amino acids mediating mAH2 and ANK
# 325 interactions, we substituted each amino acid of mAH2 with Ala, followed by SPR analysis. The results
# 328 i + 4, or i + 7) and denoted them as stapled α-helices (SAHs). […]
# [4] = target: T4, ANK domain of Notch1 intracellular domain (N1ICD-ANK) (UniProt P46531 1927-2122); test: SPR; BIAcore T200 (GE Healthcare); dissociation constant calculated with BIA-evaluation software; which partner was immobilised is not stated; details: both partners purified
# T4 construct: Notch1, ankyrin repeat (ANK) domain of the intracellular domain; the numbers fit human NOTCH1 (2555 aa); also called ANK repeat
# [5] = target: T1, ANK domain of Notch4 intracellular …; test: as above; details: both partners purified
# [6] = target: T2, ANK domain of Notch3 intracellular …; test: as above; details: both partners purified
# [7] = target: T3, ANK domain of Notch2 intracellular …; test: as above; details: both partners purified
# [8] = IP: Anti-Flag (N1DARP-Flag), blot: Myc
# [9] = IP: Anti-Myc (N1ICD-Myc), blot: Flag
molecule,measurement,setting,value
"ANK4, subdomain of the ANK domain of N1ICD (from UniProt P46531 19-2555) (domain or fragment)",Kd,[1],66100 nM
wild-type N1DARP (overexpressed) L28A,response,[2]; [8],1.01
same,response,[2]; [9],0.87
"ANK6, subdomain of the ANK domain of N1ICD (from UniProt P46531 19-2555) (domain or fragment)",Kd,[1],64200 nM
wild-type N1DARP (overexpressed) Y34A,response,[2]; [8],0.43
same,response,[2]; [9],0.31
CC(C)(C(=O)NCC(F)(F)C(F)(F)F)C(=O)N[C@@H]1C(=O)Nc2ccccc2-c2ccccc21 [RO4929097],remission in clinical studies,[3],no significant remission was observed
"Nc1ccn([C@@H]2O[C@H](CO)[C@@H](O)C2(F)F)c(=O)n1 [GEM, gemcitabine]",IC50,Capan1,44 nM
CCC[C@H](N[C@H]1CCc2cc(F)cc(F)c2C1)C(=O)Nc1cn(C(C)(C)CNCC(C)(C)C)cn1 [PF-03084014],remission in clinical studies,[3],no significant remission was observed
"ANK5, subdomain of the ANK domain of N1ICD (from UniProt P46531 19-2555) (domain or fragment)",Kd,[1],42800 nM
wild-type N1DARP (overexpressed) G12A,response,[2]; [8],0.91
same,response,[2]; [9],0.93
wild-type N1DARP (overexpressed) Y20A,response,[2]; [8],0.26
same,response,[2]; [9],0.35
O=C(O)CC[C@H]1CC[C@@](c2cc(F)ccc2F)(S(=O)(=O)c2ccc(Cl)cc2)CC1 [MK-0752],remission in clinical studies,[3],no significant remission was observed
mAH2: AH2 with amino acid substitution of Glu32 by Gln32 (YAKRIFYQLLSKQL),affinity for ANK after substitution of Glu32 by Gln32,ANK domain of N1ICD,comparable affinity
wild-type N1DARP (overexpressed) D41A,response,[2]; [8],0.87
same,response,[2]; [9],1.07
tarextumab: fully human IgG2 antibody that inhibits Notch2/3 receptors,"remission and tolerance, phase II study","[3]; metastatic pancreatic cancer, in combination with gemcitabine (GEM) and paclitaxel",remarkable remission and tolerance
wild-type N1DARP (overexpressed) Y20A; Y34A,response,[2]; [8],0
same,response,[2]; [9],0
"ANK1, subdomain of the ANK domain of N1ICD (from UniProt P46531 19-2555) (domain or fragment)",Kd,[1],43.4 nM
"ANK3, subdomain of the ANK domain of N1ICD (from UniProt P46531 19-2555) (domain or fragment)",Kd,[1],85800 nM
"ANK2, subdomain of the ANK domain of N1ICD (from UniProt P46531 19-2555) (domain or fragment)",Kd,[1],23300 nM
"[S5]AKR[S5]FYQLLSKQL (staple 1-5) [SAH-mAH2-1, stapled alpha-helix of mAH2]",Kd,[4],134 nM
"YAKRI[S5]YQLLSK[S5]L (staple 6-13) [SAH-mAH2-5, N1DARP-derived stapled peptide]",Kd,[5],35.2 nM
same,Kd,[6],69 nM
same,Kd,[7],539 nM
same,Kd,[4],0.898 nM
"[S5]AKRIFY[S5]LLSKQL (staple 1-8) [SAH-mAH2-4, stapled alpha-helix of mAH2]",Kd,[4],25.8 nM
"YAKRI[S5]YQL[S5]SKQL (staple 6-10) [SAH-mAH2-3, stapled alpha-helix of mAH2]",Kd,[4],10.5 nM
"Y[S5]KRI[S5]YQLLSKQL (staple 2-6) [SAH-mAH2-2, stapled alpha-helix of mAH2]",Kd,[4],97.7 nM
"LLEKKRQY (N1DARP, 41-aa microprotein encoded by LINC00261 (ORF12); source: synthetic peptide (Chinese Peptide, Inc., Hangzhou; > 98% purity)) [AH1, alpha-helical peptide 1 of N1DARP]",Kd,[4],213 nM
"YAKRIFYQLLSKQL (N1DARP (41 aa, encoded by LINC00261) residues 20-33 with E32Q; also called modified AH2; substituted AH2; source: synthetic peptide (Chinese Peptide, Inc., Hangzhou; > 98% purity)) [mAH2, AH2 of N1DARP with Glu32 substituted by Gln32]",Kd,[4],60.4 nM and 45.2 nM
"YAKRIAYQLLSKQL (N1DARP residues 20-33 with E32Q and position 6 of the peptide (F25) to Ala; source: synthetic peptide (Chinese Peptide, Inc., Hangzhou; > 98% purity)) [mAH2-6, alanine mutant of mAH2]",Kd,[4],63.6 nM
"YAKAIFYQLLSKQL (N1DARP residues 20-33 with E32Q and position 4 of the peptide (R23) to Ala; source: synthetic peptide (Chinese Peptide, Inc., Hangzhou; > 98% purity)) [mAH2-4, alanine mutant of mAH2]",Kd,[4],74.5 nM
"YAKRIFYQLLSKQA (N1DARP residues 20-33 with E32Q and position 14 of the peptide (Leu33) to Ala; source: synthetic peptide (Chinese Peptide, Inc., Hangzhou; > 98% purity)) [mAH2-14, alanine mutant of mAH2 (Leu33 to Ala)]",Kd,[4],5960 nM
"YAKRIFYQLLSKAL (N1DARP residues 20-33 with position 13 of the peptide (residue 32: Glu in N1DARP, Gln in mAH2) to Ala; source: synthetic peptide (Chinese Peptide, Inc., Hangzhou; > 98% purity)) [mAH2-13, alanine mutant of mAH2]",Kd,[4],99 nM
"YAKRIFYQLLSAQL (N1DARP residues 20-33 with E32Q and position 12 of the peptide (K31) to Ala; source: synthetic peptide (Chinese Peptide, Inc., Hangzhou; > 98% purity)) [mAH2-12, alanine mutant of mAH2]",Kd,[4],78.2 nM
"YAKRIFYQALSKQL (N1DARP residues 20-33 with E32Q and position 9 of the peptide (Leu28) to Ala; source: synthetic peptide (Chinese Peptide, Inc., Hangzhou; > 98% purity)) [mAH2-9, alanine mutant of mAH2 (Leu28 to Ala)]",Kd,[4],288 nM
"YAKRIFYQLASKQL (N1DARP residues 20-33 with E32Q and position 10 of the peptide (L29) to Ala; source: synthetic peptide (Chinese Peptide, Inc., Hangzhou; > 98% purity)) [mAH2-10, alanine mutant of mAH2]",Kd,[4],55.5 nM
"AAKRIFYQLLSKQL (N1DARP residues 20-33 with E32Q and position 1 of the peptide (Y20) to Ala; source: synthetic peptide (Chinese Peptide, Inc., Hangzhou; > 98% purity)) [mAH2-1, alanine mutant of mAH2]",Kd,[4],96.1 nM
"YAKRIFYQLLSKEL (N1DARP, 41-aa microprotein encoded by LINC00261 (ORF12); source: synthetic peptide (Chinese Peptide, Inc., Hangzhou; > 98% purity); 'purified AH2 peptide') [AH2, alpha-helical peptide 2 of N1DARP]",Kd,[4],60.4 nM
"YAKRIFYQLLAKQL (N1DARP residues 20-33 with E32Q and position 11 of the peptide (S30) to Ala; source: synthetic peptide (Chinese Peptide, Inc., Hangzhou; > 98% purity)) [mAH2-11, alanine mutant of mAH2]",Kd,[4],83.9 nM
"YAKRIFYALLSKQL (N1DARP residues 20-33 with E32Q and position 8 of the peptide (Q27) to Ala; source: synthetic peptide (Chinese Peptide, Inc., Hangzhou; > 98% purity)) [mAH2-8, alanine mutant of mAH2]",Kd,[4],87.4 nM
"YAKRAFYQLLSKQL (N1DARP residues 20-33 with E32Q and position 5 of the peptide (I24) to Ala; source: synthetic peptide (Chinese Peptide, Inc., Hangzhou; > 98% purity)) [mAH2-5, alanine mutant of mAH2]",Kd,[4],57.5 nM
"YAARIFYQLLSKQL (N1DARP residues 20-33 with E32Q and position 3 of the peptide (K22) to Ala; source: synthetic peptide (Chinese Peptide, Inc., Hangzhou; > 98% purity)) [mAH2-3, alanine mutant of mAH2]",Kd,[4],51.1 nM
